IntAct's records for PubMed 20562859

Tests used:
ulk1_human ULK1 = biological target: T1, ulk1_human ULK1 (UniProt O75385)
T1 sequence: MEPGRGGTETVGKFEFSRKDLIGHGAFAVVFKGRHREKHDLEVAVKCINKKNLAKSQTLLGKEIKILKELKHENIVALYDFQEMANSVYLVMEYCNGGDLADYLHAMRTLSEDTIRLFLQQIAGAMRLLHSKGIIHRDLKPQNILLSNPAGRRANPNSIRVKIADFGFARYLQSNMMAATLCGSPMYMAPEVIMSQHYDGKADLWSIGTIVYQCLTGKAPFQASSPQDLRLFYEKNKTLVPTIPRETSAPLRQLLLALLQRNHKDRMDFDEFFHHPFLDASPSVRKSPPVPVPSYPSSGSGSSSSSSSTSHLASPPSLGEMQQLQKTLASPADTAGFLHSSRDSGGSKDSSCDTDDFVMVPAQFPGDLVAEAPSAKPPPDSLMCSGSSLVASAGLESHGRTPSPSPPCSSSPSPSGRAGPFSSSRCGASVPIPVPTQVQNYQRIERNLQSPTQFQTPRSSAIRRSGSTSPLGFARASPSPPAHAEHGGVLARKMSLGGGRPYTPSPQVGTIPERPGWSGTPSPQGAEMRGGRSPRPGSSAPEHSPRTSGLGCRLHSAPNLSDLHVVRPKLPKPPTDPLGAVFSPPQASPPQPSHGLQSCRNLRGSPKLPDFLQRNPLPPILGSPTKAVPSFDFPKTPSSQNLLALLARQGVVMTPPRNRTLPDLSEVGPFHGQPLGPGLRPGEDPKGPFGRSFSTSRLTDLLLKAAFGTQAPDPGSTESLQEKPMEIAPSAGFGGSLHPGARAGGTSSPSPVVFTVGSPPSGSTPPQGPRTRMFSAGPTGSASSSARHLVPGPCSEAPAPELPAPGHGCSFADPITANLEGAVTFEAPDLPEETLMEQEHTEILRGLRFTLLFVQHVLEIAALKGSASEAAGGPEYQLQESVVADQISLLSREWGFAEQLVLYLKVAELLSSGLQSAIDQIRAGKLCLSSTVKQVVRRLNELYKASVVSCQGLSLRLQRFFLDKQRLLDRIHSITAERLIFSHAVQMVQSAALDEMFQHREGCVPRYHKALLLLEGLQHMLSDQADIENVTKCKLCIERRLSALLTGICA

daaf4_human DNAAF4 = biological target: T2, daaf4_human DNAAF4 (UniProt Q8WXU2)
T2 sequence: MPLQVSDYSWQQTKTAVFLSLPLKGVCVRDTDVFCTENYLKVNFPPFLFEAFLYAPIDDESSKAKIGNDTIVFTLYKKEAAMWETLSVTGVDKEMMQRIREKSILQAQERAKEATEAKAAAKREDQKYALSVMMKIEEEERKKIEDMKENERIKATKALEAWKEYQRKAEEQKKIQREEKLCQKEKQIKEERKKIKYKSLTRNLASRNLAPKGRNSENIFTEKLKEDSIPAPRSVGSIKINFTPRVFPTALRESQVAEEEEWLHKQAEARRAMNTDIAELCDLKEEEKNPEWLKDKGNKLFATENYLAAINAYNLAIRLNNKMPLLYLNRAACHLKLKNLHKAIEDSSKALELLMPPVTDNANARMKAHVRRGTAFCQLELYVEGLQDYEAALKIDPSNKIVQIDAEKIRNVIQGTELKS

uba5_human UBA5 = uba5_human UBA5 (UniProt Q9GZZ9)
Chain of uba5_human UBA5 (Q9GZZ9 whole entry): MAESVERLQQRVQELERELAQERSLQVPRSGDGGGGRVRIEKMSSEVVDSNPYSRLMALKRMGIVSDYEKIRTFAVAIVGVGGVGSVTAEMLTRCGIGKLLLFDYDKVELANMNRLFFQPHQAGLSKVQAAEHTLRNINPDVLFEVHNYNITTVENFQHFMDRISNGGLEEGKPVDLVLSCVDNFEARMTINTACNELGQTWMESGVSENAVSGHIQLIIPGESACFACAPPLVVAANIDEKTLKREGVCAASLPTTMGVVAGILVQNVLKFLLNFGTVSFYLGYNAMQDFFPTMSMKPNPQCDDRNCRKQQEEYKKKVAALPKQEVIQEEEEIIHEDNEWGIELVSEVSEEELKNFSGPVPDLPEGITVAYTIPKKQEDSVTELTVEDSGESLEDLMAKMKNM

stk4_human STK4 = biological target: T3, stk4_human STK4 (UniProt Q13043)
T3 sequence: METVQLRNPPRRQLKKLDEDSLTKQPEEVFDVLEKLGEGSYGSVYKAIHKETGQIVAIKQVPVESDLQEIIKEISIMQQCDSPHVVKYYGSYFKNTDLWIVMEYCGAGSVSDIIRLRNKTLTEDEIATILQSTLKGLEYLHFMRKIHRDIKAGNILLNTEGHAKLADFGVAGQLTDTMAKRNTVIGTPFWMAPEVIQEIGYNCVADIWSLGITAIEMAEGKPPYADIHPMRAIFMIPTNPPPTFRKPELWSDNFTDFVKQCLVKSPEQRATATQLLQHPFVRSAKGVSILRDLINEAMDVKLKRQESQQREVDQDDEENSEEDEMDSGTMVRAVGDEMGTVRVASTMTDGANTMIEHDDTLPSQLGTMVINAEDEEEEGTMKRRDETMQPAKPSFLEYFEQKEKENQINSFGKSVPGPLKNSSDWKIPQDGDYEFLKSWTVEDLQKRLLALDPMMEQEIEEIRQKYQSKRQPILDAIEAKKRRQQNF

kap0_human PRKAR1A = kap0_human PRKAR1A (UniProt P10644)
Chain of kap0_human PRKAR1A (P10644 whole entry): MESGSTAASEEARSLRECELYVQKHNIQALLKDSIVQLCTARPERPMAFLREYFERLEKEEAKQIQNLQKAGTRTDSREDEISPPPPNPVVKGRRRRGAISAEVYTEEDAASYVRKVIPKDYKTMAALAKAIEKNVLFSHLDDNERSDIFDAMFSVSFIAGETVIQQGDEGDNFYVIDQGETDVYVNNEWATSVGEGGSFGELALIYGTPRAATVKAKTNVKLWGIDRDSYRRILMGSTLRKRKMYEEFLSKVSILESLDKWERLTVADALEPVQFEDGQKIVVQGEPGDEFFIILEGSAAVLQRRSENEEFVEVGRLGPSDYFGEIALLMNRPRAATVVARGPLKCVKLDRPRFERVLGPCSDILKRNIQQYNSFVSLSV

nek9_human NEK9 = biological target: T4, nek9_human NEK9 (UniProt Q8TD19)
T4 sequence: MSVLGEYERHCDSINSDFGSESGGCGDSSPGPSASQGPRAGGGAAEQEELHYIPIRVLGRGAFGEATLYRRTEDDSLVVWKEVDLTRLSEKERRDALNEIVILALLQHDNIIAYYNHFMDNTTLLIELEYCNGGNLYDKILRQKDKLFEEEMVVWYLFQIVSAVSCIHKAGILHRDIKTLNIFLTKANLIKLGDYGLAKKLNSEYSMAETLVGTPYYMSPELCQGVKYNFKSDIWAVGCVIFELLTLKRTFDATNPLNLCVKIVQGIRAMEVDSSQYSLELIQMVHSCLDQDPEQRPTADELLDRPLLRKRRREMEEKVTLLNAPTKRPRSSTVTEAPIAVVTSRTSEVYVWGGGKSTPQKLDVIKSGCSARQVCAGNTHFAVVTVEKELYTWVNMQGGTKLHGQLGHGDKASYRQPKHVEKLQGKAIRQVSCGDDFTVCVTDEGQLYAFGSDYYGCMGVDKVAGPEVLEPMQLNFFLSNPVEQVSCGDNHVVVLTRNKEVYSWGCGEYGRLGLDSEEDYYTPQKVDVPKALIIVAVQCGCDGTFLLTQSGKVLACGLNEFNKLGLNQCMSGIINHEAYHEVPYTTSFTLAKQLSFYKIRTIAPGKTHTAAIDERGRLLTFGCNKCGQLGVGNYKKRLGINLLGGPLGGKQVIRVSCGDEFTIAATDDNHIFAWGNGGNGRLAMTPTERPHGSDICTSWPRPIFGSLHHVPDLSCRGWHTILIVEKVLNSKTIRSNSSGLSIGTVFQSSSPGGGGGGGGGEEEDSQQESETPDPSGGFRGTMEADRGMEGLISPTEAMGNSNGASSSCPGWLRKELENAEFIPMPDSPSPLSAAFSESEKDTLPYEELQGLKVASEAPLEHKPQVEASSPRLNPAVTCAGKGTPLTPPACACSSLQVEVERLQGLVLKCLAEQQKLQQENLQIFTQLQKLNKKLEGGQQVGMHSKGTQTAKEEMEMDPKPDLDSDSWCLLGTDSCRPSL

atg5_human ATG5 = atg5_human ATG5 (UniProt Q9H1Y0)
Chain of atg5_human ATG5 (Q9H1Y0 whole entry): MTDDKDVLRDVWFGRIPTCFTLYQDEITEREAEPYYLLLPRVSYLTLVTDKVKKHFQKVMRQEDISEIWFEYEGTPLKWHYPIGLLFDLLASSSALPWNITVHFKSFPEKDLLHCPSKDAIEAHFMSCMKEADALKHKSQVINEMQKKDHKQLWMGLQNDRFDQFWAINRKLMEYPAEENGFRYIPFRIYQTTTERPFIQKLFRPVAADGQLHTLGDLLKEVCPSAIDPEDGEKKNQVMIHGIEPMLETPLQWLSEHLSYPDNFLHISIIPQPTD

Substance | effect of a mutation on the interaction (ulk1_human ULK1) | effect of a mutation on the interaction (daaf4_human DNAAF4) | effect of a mutation on the interaction (uba5_human UBA5) | effect of a mutation on the interaction (stk4_human STK4) | effect of a mutation on the interaction (kap0_human PRKAR1A) | effect of a mutation on the interaction (nek9_human NEK9) | effect of a mutation on the interaction (atg5_human ATG5)
Microtubule-associated protein 1 light chain 3 beta (Homo sapiens) (from UniProt Q9GZQ8) R69A | decreasing interaction | decreasing interaction | disrupting interaction | disrupting interaction | decreasing interaction | – | –
Microtubule-associated protein 1 light chain 3 beta (Homo sapiens) (from UniProt Q9GZQ8) F52A;L53A | – | – | – | – | – | decreasing interaction | increasing interaction
